Test results from US11938198B2, “Treatment of heart disease by disruption of the anchoring of PP2A” (University of Miami, priority 2019, dated 2024).

Key:
[1] = tested on: T1, myc-tagged rat mAKAP 1286-2083 (lacking the PP2A binding site)
T1 sequence: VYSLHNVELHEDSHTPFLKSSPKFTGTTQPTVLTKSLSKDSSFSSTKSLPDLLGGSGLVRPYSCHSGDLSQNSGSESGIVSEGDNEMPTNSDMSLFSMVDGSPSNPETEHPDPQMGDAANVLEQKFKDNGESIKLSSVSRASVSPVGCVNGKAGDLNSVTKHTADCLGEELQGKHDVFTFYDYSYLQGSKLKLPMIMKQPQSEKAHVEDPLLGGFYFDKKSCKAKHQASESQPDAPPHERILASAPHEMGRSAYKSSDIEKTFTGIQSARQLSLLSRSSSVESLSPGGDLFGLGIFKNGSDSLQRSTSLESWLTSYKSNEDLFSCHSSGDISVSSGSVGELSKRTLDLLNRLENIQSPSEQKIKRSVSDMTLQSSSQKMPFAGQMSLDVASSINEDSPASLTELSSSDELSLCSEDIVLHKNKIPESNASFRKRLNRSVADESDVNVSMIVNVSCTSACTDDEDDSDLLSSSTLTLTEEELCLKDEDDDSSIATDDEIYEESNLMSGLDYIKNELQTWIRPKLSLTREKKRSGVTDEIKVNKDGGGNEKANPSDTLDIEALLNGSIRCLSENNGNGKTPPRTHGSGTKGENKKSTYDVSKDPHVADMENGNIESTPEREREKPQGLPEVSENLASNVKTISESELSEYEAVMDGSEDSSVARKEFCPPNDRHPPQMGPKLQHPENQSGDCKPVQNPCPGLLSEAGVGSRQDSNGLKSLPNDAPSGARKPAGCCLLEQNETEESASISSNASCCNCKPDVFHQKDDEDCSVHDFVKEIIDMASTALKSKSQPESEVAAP

[2] = tested on: endogenous rat mAKAPβ (native mAKAP of adult rat heart extracts and neonatal rat ventricular myocytes)
[3] = tested on: T2, myc-tagged rat mAKAP PP2A Binding Domain (myc-PBD, rat mAKAP aa 2134-2314)
T2 sequence: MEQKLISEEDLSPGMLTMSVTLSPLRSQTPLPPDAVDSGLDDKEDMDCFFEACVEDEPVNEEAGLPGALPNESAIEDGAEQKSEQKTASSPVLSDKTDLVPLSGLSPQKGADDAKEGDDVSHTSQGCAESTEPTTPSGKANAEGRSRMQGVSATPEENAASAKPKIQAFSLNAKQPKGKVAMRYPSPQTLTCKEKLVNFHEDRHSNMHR

[4] = target: PP2A endogenous in HEK293 cells, detected as PP2A-C subunit or as okadaic acid-sensitive phosphatase activity; experiment: cell-based or functional assay
PDE4D3 Ser-54 = PDE4D3 Ser-54 phosphorylation in mAKAP immunoprecipitates from transfected HEK293 cells (phospho-specific immunoblot); assay type: cell-based; conditions: HEK293 cells expressing PDE4D3 and mAKAP construct lacking the PP2A binding site
mAKAP-bound PDE4D3 = experiment: PDE activity associated with mAKAP immunoprecipitates from transfected HEK293 cells ([3H]cAMP); assay type: cell-based; conditions: unstimulated (bar 1 and 4)
Description: Immunoprecipitation—HEK293 cells were used in this project as a heterologous system lacking mAKAP in which the various wildtype and mutant proteins could be easily expressed. Cells cultured on 60 mm plates were transfected at 50%-70% confluency by the calcium phosphate method, using 6 μg of each DNA construct per plate. Cells were harvested 24 hours after transfection in 0.5 ml HSE buffer (HEPES, pH 7.4, 150 mM NaCl, 5 mM EDTA, 1% Triton X-100 and protease inhibitors). Supernatants were incubated with 3 μg antibody and 15 μl prewashed protein A- or G-agarose beads. Following overnight incubation at 4° C., the immunoprecipitates were washed three times with the same buffer. Bound proteins were analyzed by immunoblotting. […]
As phosphorylation of PDE4D3 Ser-54 increases phosphodiesterase activity 2 fold (Sette and Conti 1996), whether OA treatment would also increase the activity of mAKAP-bound PDE4D3 was tested. mAKAP complexes were immunoprecipitated from transfected HEK293 cells and assayed for associated phosphodiesterase activity (FIG. 8B). mAKAP-associated phosphodiesterase activity in untreated cells was detected only when mAKAP was co-expressed with PDE4D3 (FIG. 8B, bar 1, and data not shown), consistent with a previous observation that PDE4D3 accounts for all of the phosphodiesterase activity associated with mAKAP in cardiac myocytes (Dodge et al. 2001).

PP2A = target: T3, PP2A (Homo sapiens, UniProt P30153+P67775); experiment: myc-tag immunoprecipitation of mAKAP fragments from HEK293 cells with phosphatase assay; assay type: binding; conditions: myc-tagged fragments expressed in HEK293 cells
T3 construct: endogenous in cells; host or cells: HEK293
T3 sequence (P67775 whole entry, the tested form may be a part): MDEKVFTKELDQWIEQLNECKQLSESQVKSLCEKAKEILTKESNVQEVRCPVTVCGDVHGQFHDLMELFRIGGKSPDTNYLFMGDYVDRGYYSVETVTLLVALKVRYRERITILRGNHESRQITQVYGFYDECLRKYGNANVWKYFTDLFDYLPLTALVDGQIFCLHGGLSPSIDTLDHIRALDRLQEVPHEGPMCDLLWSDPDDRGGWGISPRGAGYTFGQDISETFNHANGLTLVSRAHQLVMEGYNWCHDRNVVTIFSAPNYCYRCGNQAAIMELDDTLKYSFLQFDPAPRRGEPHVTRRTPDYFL
T3 sequence (P30153 whole entry, the tested form may be a part): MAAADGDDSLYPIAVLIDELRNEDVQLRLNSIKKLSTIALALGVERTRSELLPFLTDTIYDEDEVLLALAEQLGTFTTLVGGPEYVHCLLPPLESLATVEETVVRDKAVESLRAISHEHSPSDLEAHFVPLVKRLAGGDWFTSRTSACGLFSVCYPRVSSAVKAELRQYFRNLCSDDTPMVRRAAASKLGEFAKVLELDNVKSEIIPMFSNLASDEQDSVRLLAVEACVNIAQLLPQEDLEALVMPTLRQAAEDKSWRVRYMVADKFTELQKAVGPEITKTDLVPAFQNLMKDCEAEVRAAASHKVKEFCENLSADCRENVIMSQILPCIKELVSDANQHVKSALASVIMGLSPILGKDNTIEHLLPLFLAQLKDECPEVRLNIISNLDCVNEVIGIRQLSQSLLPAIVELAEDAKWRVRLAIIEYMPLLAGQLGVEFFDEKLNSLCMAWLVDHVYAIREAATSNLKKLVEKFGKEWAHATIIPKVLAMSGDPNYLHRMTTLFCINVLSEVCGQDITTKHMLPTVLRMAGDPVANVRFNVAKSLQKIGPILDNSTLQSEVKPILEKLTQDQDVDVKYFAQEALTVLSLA
Description: Immunoprecipitation—HEK293 cells were used in this project as a heterologous system lacking mAKAP in which the various wildtype and mutant proteins could be easily expressed. Cells cultured on 60 mm plates were transfected at 50%-70% confluency by the calcium phosphate method, using 6 μg of each DNA construct per plate. Cells were harvested 24 hours after transfection in 0.5 ml HSE buffer (HEPES, pH 7.4, 150 mM NaCl, 5 mM EDTA, 1% Triton X-100 and protease inhibitors). Supernatants were incubated with 3 μg antibody and 15 μl prewashed protein A- or G-agarose beads. Following overnight incubation at 4° C., the immunoprecipitates were washed three times with the same buffer. Bound proteins were analyzed by immunoblotting.
To measure phosphatase activity, immunoprecipitated protein complexes were washed twice in HSE buffer and once in PP2A reaction buffer. The immunoprecipitates were incubated for 30 minutes at 30° C. in 20 μl PP2A assay buffer containing 100,000 cpm [^32P]histone in the presence and absence of inhibitors. The PP2A inhibitor (Calbiochem) was used at a concentration of 30 nM. Purified I-1 was phosphorylated by PKA before using as a specific PP1 inhibitor. Reactions were terminated by the addition of 100 μl 20% TCA followed by 10 min centrifugation. TCA supernatants containing released ^32PO4 were measured by scintillation counting. […]

[5] = target: T4, myc-tagged, green fluorescent protein (GFP) RBD-fusion protein (mAKAP aa 1694-1833)
T4 chain: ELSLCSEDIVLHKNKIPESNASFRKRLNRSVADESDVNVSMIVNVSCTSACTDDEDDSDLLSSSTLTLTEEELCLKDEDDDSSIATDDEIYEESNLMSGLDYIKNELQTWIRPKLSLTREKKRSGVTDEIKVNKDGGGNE

[6] = tested on: adult rat ventricular myocytes (ARVM); experiment: ARVM morphologic hypertrophy (cell width and length by immunocytochemistry); assay type: cell-based; conditions: adenoviral expression, no drug
Description: Adult rat ventricular myocyte isolation and culture: 2-3 month old rats were anesthetized using Ketamine (80-100 mg/kg) and Xylazine (5-10 mg/kg) IP following 1000 U heparinization for cardiac excision. The heart was transferred immediately into chilled perfusion buffer (NaCl 120 mM, KCl 5.4 mM, Na2HPO4·7H2O 1.2 mM, NaHCO320.0 mM, MgCl2·6H2O 1.6 mM, Taurine 5 mM, Glucose 5.6 mM, 2,3-Butanedione monoxime 10 mM) pre-equilibrated with 95% O2 and 5% CO2. After removal of extraneous tissue, the heart was attached via the aorta to a Harvard Langendorff apparatus cannula. Ca^2+-free perfusion was used to flush out remaining blood with a constant rate of 8-10 mL/min at 37° C. The heart was then digested through circulatory perfusion with 50 mL perfusion buffer containing 125 mg type II collagenase (Worthington, 245 U/mg), 0.1 mg protease (Sigma type XIV) and 0.1% BSA. After perfusion, the atria were removed and the ventricular myocytes dissociated by slicing and repetitive pipetting. The debris was filtered by a 200 μm nylon mesh, and the myocytes collected by one minute centrifugation at 50 g. Ca^2+ concentration in the buffer was gradually recovered to 1.8 mM and the myocytes were resuspended in ACCT medium (M199 Medium (Invitrogen 11150-059), Creatine 5 mM, L-carnitine 2 mM, Taurine 5 mM, HEPES 25 mM, 2,3-Butanedione monoxime 10 mM, BSA 0.2% and 1×Insulin-Transferrin-Selenium Supplement) and plated on 10 μg/ml laminin pre-coated dishes. Cells were washed with ACCT medium 1.5 hours after plating and subjected to adenoviral infection or siRNA transfection, in which 100-200 Multiplicity of Infection (MOI) of adenovirus and 100 nmol/L siRNA mixed with Dharmafect1 (Dharmacon) were used, respectively. Adrenergic agonists were added the next day, with biochemical assay and morphological measurement performed after 24 hours of stimulation.
Immunocytochemistry: Myocytes on coverslips were fixed in 3.7% formaldehyde in PBS for 1 hour, permeabilized with 0.3% Triton X-100, and blocked in PBS containing 0.2% BSA and 1% horse serum. The slides were then sequentially incubated for 1 hour with primary and Alexa fluorescent dye-conjugated specific-secondary antibodies (Invitrogen, 1:1000) diluted in blocking buffer. The slips were washed three times with blocking buffer. 1 μg/mL Hoechst 33258 was included in the last wash stop to label nuclei. Slides were sealed in SlowFade Gold antifade buffer (Invitrogen, S36938) for fluorescent microscopy. Wide-field images were acquired using a Leica DM4000 Microscope.

PP2A endogenous in HEK293 cells, detected as PP2A-C subunit or as okadaic acid-sensitive phosphatase activity
baseline phosphorylation of mAKAP-bound PDE4D3 Ser-54 [1]: 0.49±0.19 fold of the level obtained with OA

endogenous PP2A of rat heart and rat ventricular myocytes, detected as PP2A catalytic subunit (PP2A-C)
phosphatase activity associated with mAKAP immunoprecipitates from heart extracts ([32P]histone substrate) [2]: 3-fold enrichment of phosphatase activity over control IgG immunoprecipitates
Iso-induced SRF Ser103 phosphorylation in ARVM [3]: PBD expression potentiated the induction of SRF Ser^103 phosphorylation in ARVM stimulated with the β-adrenergic isoproterenol

myc-tagged rat mAKAP 1286-2083 (lacking the PP2A binding site) (from UniProt Q9WVC7 1286-2083)
PDE4D3 activity in myc-tag immunoprecipitates [4]: 30 % higher

B1: mAKAP 1286-2083: myc-tagged rat mAKAP 1286-2083 construct deficient in PP2A binding (protein)
chain: T1 sequence
modifications: left off: small tags and cut ends
baseline phosphorylation of mAKAP-bound PDE4D3, fold of the level obtained with OA (PDE4D3 Ser-54): 0.49±0.19 fold
PDE4D3 activity higher in immunoprecipitates lacking PP2A than in complexes containing the phosphatase (mAKAP-bound PDE4D3): 30%
co-immunoprecipitation with OA-sensitive phosphatase activity (PP2A): not

B2: endogenous RSK3 of rat ventricular myocytes (protein)
chain: MELNMKKFTVRRFFSVYLRKKSRSKSSSLSRLEEEGIVKEIDISSHVKEGFEKADPSQFELLKVLGQGSYGKVFLVRKVTGSDAGQLYAMKVLKKATLKVRDRVRSKMERDILAEVNHPFIVKLHYAFQTEGKLYLILDFLRGGDLFTRLSKEVMFTEEDVKFYLAELALALDHLHGLGIIYRDLKPENILLDEEGHIKITDFGLSKEAIDHDKRAYSFCGTIEYMAPEVVNRRGHTQSADWWSFGVLMFEMLTGSLPFQGKDRKETMALILKAKLGMPQFLSAEAQSLLRALFKRNPCNRLGAGVDGVEEIKRHPFFVTIDWNKLYRKEIKPPFKPAVGRPEDTFHFDPEFTARTPTDSPGVPPSANAHHLFRGFSFVASSLVQEPSQQDVPKAPIHPIVQQLHGNNIHFTDGYEIKEDIGVGSYSVCKRCVHKATDAEYAVKIIDKSKRDPSEEIEILLRYGQHPNIITLKDVYDDGKYVYLVMELMRGGELLDRILRQRCFSEREASDVLYTIARTMDYLHSQGVVHRDLKPSNILYMDESGNPESIRICDFGFAKQLRAENGLLMTPCYTANFVAPEVLKRQGYDAACDVWSLGILLYTMLAGFTPFANGPDDTPEEILARIGSGKYALSGGNWDSISDAAKDVVSKMLHVDPQQRLTAVQVLKHPWIVNREYLSQNQLSRQDVHLVKGAMAATYFALNRTPQAPRLEPVLSSSLAQRRGMKRLTSTRL
PE-induced SRF Ser103 phosphorylation in NRVM and ARVM [5]: inhibited PE-induced SRF Ser^103 phosphorylation in both NRVM and primary adult rat ventricular myocyte cultures
basal ARVM morphology [6]: selectively increased the width
